For one substance, EC50 results are on record in patent US20170340748A1.

Usually EC50 stands for the concentration needed to bring the measured effect to its halfway point.

Experiment [1] has as its target T47D cells (human) (UniProt P15328). Nature of the experiment: flow cytometry binding on T47D cells. (A flow cytometer gives signals particle by particle.)
Experiment [2] has the same target. Description: flow cytometry binding on T47D cells. The source holds these as a separate data set.

Like-named read-outs stand apart in the source and are kept apart here.

Chain of T47D cells (human) (P15328 25-234, stated change not applied): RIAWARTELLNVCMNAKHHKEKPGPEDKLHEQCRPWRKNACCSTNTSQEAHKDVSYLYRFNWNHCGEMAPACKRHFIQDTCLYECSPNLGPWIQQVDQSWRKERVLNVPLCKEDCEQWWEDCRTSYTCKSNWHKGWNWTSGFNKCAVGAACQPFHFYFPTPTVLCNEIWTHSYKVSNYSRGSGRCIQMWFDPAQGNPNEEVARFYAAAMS

huMOV19: the EC50 in experiment [1] is 0.144 nM; in experiment [2] it was 0.314 nM.
